Measured values reported in paper PMC2064704.

Tests used:
[1] = target: endogenous actin filaments of XTC cells (Xenopus laevis (endogenous in XTC)) (UniProt O93400); assay: decay of EGFP fluorescence in permeabilized cells
[2] = target: endogenous actin filaments of XTC cells (Xenopus laevis (endogenous in XTC)) (UniProt O93400); assay: single-molecule speckle microscopy

Substance | decay rate of fluorescence in lamellipodia of permeabilized cells [1] | half-life of persistent speckles after 1 μM Jas [2] | half-life of persistent speckles before Jas [2] | half-life of persistent speckles in lamella away from stress fibers [2] | half-life of persistent speckles on stress fibers [2] | half-life of speckles in lamellipodia [2]
EGFP-CPβ1 expressed in XTC cells (coupled with endogenous CPα subunits) (complex) | 0.00017 s⁻¹ | 68.9 s | 4.26 s | 0.95 s | 2.9 s | 1.2 s
CPβ1-EGFP expressed in XTC cells (coupled with endogenous CPα subunits) (complex) | – | – | – | – | – | 1.23 s
